Patent US20140274782A1, “AFFINITY REAGENTS AND METHODS FOR DETECTION, PURIFICATION, AND PROTEOMIC ANALYSIS OF METHYLATED PROTEINS” (The Board of Trustees of the Leland Stanford Junior …, priority 2013, published 2014)

T1: G9a and GLP (Homo sapiens, UniProt Q96KQ7+Q9H9B1)
T1 sequence (Q96KQ7 2-1210 limits assumed): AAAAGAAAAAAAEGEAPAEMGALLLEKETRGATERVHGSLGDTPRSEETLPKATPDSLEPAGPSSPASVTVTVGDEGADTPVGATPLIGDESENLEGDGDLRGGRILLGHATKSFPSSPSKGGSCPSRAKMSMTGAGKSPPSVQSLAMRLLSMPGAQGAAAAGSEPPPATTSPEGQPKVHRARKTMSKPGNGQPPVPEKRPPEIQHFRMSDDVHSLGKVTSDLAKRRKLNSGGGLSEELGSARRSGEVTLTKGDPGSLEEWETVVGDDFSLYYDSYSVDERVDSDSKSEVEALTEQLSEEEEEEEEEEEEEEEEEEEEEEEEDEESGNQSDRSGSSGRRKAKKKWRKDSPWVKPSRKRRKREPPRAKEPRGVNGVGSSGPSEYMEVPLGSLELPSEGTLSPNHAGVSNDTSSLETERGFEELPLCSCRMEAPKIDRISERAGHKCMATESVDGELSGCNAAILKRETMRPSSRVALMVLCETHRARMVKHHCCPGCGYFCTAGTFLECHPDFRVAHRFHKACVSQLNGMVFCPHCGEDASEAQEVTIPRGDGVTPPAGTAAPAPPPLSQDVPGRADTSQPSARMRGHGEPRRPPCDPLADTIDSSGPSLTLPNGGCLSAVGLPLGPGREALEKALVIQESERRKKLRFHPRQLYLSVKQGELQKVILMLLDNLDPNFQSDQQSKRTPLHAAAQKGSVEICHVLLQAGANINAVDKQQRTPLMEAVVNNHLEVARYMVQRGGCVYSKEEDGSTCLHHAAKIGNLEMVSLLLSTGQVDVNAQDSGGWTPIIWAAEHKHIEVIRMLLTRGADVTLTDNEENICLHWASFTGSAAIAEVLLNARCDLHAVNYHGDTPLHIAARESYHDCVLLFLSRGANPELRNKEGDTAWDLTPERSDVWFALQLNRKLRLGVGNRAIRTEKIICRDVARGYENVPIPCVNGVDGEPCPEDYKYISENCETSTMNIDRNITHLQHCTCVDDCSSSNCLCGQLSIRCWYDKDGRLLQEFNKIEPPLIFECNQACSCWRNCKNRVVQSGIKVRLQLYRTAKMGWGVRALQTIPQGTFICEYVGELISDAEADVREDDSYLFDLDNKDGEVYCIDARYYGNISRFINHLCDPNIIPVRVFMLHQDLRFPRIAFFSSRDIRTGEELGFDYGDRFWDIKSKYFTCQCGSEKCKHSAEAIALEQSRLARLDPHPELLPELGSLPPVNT
T1 sequence (Q9H9B1 2-1298 limits assumed): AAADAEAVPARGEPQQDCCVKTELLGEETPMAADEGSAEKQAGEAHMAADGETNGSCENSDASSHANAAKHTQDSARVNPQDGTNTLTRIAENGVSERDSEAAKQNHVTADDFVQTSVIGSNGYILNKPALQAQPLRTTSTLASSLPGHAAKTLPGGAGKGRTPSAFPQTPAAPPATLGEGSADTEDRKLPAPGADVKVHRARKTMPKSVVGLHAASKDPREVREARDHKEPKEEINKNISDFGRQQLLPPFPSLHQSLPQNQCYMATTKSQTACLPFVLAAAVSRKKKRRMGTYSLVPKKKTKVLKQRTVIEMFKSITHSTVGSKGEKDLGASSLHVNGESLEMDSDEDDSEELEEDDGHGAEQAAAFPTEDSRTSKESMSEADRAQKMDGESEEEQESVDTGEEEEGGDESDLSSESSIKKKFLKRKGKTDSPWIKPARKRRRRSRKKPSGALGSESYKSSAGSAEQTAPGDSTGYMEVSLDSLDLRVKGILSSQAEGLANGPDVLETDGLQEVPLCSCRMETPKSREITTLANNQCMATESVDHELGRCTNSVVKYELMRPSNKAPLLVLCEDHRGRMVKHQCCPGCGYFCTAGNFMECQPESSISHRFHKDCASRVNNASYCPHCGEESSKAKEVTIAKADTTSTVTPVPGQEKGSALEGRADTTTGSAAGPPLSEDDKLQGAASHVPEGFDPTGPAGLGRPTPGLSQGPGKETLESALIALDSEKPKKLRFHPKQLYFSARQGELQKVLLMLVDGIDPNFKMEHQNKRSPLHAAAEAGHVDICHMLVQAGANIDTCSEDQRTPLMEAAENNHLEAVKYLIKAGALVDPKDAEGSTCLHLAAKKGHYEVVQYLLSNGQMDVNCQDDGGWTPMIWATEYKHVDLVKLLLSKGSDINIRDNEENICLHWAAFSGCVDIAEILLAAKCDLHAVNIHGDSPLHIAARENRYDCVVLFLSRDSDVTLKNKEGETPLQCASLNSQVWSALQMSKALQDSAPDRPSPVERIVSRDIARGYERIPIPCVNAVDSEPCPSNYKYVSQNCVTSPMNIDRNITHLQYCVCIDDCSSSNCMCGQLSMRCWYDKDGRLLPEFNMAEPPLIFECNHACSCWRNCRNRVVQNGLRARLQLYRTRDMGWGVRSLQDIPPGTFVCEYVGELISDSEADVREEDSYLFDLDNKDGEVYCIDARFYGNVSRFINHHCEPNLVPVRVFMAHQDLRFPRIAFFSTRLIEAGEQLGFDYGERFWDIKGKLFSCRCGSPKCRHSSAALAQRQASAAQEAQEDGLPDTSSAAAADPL


Tests used:
[1] = system: 3×MBT domain of L3MBTL1; assay: Triple SILAC pull-down, 3xMBT/3xMBTD355N ratio (cytoplasmic, nuclear and chromatin fractions of 293T cells); format: binding, human; conditions: SILAC ratio, pull-down 3xMBT vs 3xMBTD355N; for 3xMBT/D355N UNC Heavy: experiment with UNC0638 in heavy SILAC media; for 3xMBT/D355N UNC Light: experiment with UNC0638 in light SILAC media;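 as to all read-outs here: proteins quantified with MaxQuant, requiring at least two unique peptides and quantification in both label directions, normalized to the mean of proteins from a digested loading control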
[2] = target: T1, G9a and GLP; assay: Triple SILAC pull-down after UNC0638 treatment of 293T cells, DMSO/UNC0638 ratio of protein captured by 3×MBT; format: cell-based; set-up: cells were treated for 24 hours with UNC0638 at 2.5 μM or DMSO vehicle control; endogenous in cells; host or cells: HEK 293T; conditions: for Relative to UNC0638 UNC Heavy / Relative to UNC0638 UNC Light: SILAC ratio DMSO/UNC0638 of protein pulled down with 3xMBT; for Relative to UNC0638 UNC Heavy: UNC0638 in heavy SILAC media; for Relative to UNC0638 UNC Light: UNC0638 in light SILAC media; for Relative to UNC0638 Average: average of UNC Light and UNC Heavy experiments;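 as to all read-outs here: mass spectrometry (Q-Exactive) SILAC quantitation, DMSO/UNC0638 ratio computed after subtracting 3×MBTD355N mutant pull-down background, only proteins with at least twofold 3×MBT over mutant signal considered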

Relative to UNC0638 UNC Heavy [2] | Relative to UNC0638 UNC Light [2] | Relative to UNC0638 Average [2] | Molecule | 3xMBT/D355N UNC Heavy [1] | 3xMBT/D355N UNC Light [1]
0.52 log base 2 | 0.06 log base 2 | 0.29 log base 2 | ZNF598 (protein, UniProt Q86UK7 1-904, looked up) E3 ubiquitin-protein ligase …: MAAAGGAEGRRAALEAAAAAAPERGGGSCVLCCGDLEATALGRCDHPVCYRCSTKMRVLCEQRYCAVCREELRQVVFGKKLPAFATIPIHQLQHEKKYDIYFADGKVYALYRQLLQHECPRCPELPPFSLFGDLEQHMRRQHELFCCRLCLQHLQIFTYERKWYSRKDLARHRMQGDPDDTSHRGHPLCKFCDERYLDNDELLKHLRRDHYFCHFCDSDGAQDYYSDYAYLREHFREKHFLCEEGRCSTEQFTHAFRTEIDLKAHRTACHSRSRAEARQNRHIDLQFSYAPRHSRRNEGVVGGEDYEEVDRYSRQGRVARAGTRGAQQSRRGSWRYKREEEDREVAAAVRASVAAQQQEEARRSEDQEEGGRPKKEEAAARGPEDPRGPRRSPRTQGEGPGPKETSTNGPVSQEAFSVTGPAAPGCVGVPGALPPPSPKLKDEDFPSLSASTSSSCSTAATPGPVGLALPYAIPARGRSAFQEEDFPALVSSVPKPGTAPTSLVSAWNSSSSSKKVAQPPLSAQATGSGQPTRKAGKGSRGGRKGGPPFTQEEEEDGGPALQELLSTRPTGSVSSTLGLASIQPSKVGKKKKVGSEKPGTTLPQPPPATCPPGALQAPEAPASRAEGPVAVVVNGHTEGPAPARSAPKEPPGLPRPLGSFPCPTPQEDFPALGGPCPPRMPPPPGFSAVVLLKGTPPPPPPGLVPPISKPPPGFSGLLPSPHPACVPSPATTTTTKAPRLLPAPRAYLVPENFRERNLQLIQSIRDFLQSDEARFSEFKSHSGEFRQGLISAAQYYKSCRDLLGENFQKVFNELLVLLPDTAKQQELLSAHTDFCNREKPLSTKSKKNKKSAWQATTQQAGLDCRVCPTCQQVLAHGDASSHQALHAARDDDFPSLQAIARIIT | 1.92 log base 2 | 3.58 log base 2
0.24 log base 2 | 0.33 log base 2 | 0.29 log base 2 | RBM3 (protein, UniProt P98179 1-157, looked up) RNA-binding protein 3: MSSEEGKLFVGGLNFNTDEQALEDHFSSFGPISEVVVVKDRETQRSRGFGFITFTNPEHASVAMRAMNGESLDGRQIRVDHAGKSARGTRGGGFGAHGRGRSYSRGGGDQGYGSGRYYDSRPGGYGYGYGRSRDYNGRNQGGYDRYSGGNYRDNYDN | 3.49 log base 2 | 3.25 log base 2
0.33 log base 2 | 0.24 log base 2 | 0.29 log base 2 | PRPF40A (protein, UniProt O75400 1-957, looked up) Pre-mRNA-processing factor 40 …: MRPGTGAERGGLMVSEMESHPPSQGPGDGERRLSGSSLCSGSWVSADGFLRRRPSMGHPGMHYAPMGMHPMGQRANMPPVPHGMMPQMMPPMGGPPMGQMPGMMSSVMPGMMMSHMSQASMQPALPPGVNSMDVAAGTASGAKSMWTEHKSPDGRTYYYNTETKQSTWEKPDDLKTPAEQLLSKCPWKEYKSDSGKPYYYNSQTKESRWAKPKELEDLEGYQNTIVAGSLITKSNLHAMIKAEESSKQEECTTTSTAPVPTTEIPTTMSTMAAAEAAAAVVAAAAAAAAAAAAANANASTSASNTVSGTVPVVPEPEVTSIVATVVDNENTVTISTEEQAQLTSTPAIQDQSVEVSSNTGEETSKQETVADFTPKKEEEESQPAKKTYTWNTKEEAKQAFKELLKEKRVPSNASWEQAMKMIINDPRYSALAKLSEKKQAFNAYKVQTEKEEKEEARSKYKEAKESFQRFLENHEKMTSTTRYKKAEQMFGEMEVWNAISERDRLEIYEDVLFFLSKKEKEQAKQLRKRNWEALKNILDNMANVTYSTTWSEAQQYLMDNPTFAEDEELQNMDKEDALICFEEHIRALEKEEEEEKQKSLLRERRRQRKNRESFQIFLDELHEHGQLHSMSSWMELYPTISSDIRFTNMLGQPGSTALDLFKFYVEDLKARYHDEKKIIKDILKDKGFVVEVNTTFEDFVAIISSTKRSTTLDAGNIKLAFNSLLEKAEAREREREKEEARKMKRKESAFKSMLKQAAPPIELDAVWEDIRERFVKEPAFEDITLESERKRIFKDFMHVLEHECQHHHSKNKKHSKKSKKHHRKRSRSRSGSDSDDDDSHSKKKRQRSESRSASEHSSSAESERSYKKSKKHKKKSKKRRHKSDSPESDAEREKDKKEKDRESEKDRTRQRSESKHKSPKKKTGKDSGNWDTSGSELSEGELEKRRRTLLEQLDDDQ | 3.54 log base 2 | 2.13 log base 2
0.51 log base 2 | 0.05 log base 2 | 0.28 log base 2 | CNBP (protein, UniProt P62633 2-177, looked up) CCHC-type zinc finger nucleic …: SSNECFKCGRSGHWARECPTGGGRGRGMRSRGRGGFTSDRGFQFVSSSLPDICYRCGESGHLAKDCDLQEDACYNCGRGGHIAKDCKEPKREREQCCYNCGKPGHLARDCDHADEQKCYSCGEFGHIQKDCTKVKCYRCGETGHVAINCSKTSEVNCYRCGESGHLARECTIEATA | 1.05 log base 2 | 1.79 log base 2
